Measurements from the nanobody polyreactivity screen of Harvey et al. (2022).

Assay: yeast display, Sf9 membrane polyspecificity reagent, FACS + sequencing; frameworks hold sequencing errors
Summary of the method: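 Polyreactivity labels are assigned by the sorting gate from which each nanobody was recovered. The gates were low and high (top ~1%), set on anti-HA fluorescence for expression and streptavidin fluorescence for reagent binding. Before sorting, galactose-induced (36–48 hours) yeast display cells were stained for 1 hour at 4 °C with 10% biotinylated, detergent-solubilized Sf9 membrane reagent.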

Sequence | polyreactivity (PSR sort gate)
QVQLVESGGGLVQAGGSLRLSCAASGRTFYYYTMGWYRQAPGKERELVAAIRGSGRTYYADSVKGRFTISRDNAKNTVYLQMNSLKPEDTAVYYCAAETGYTIRYDYWGQGTQVTVSS | high polyreactivity
QVQLVESGGGLVQAGGSLRLSCAASGRTFYYYYTMGWYRQAPGKERELVAAISRSGSTNYADSVKGRFTISRDNAKNSVYLQMNSLKPEDTAVYYCAKETNRVGRYQWGQGTQVTVSS | low polyreactivity
QVQLVESGGGLVQAGGSLRLSCAASGRTFYYYYTMGWYRQAPGKERELVAAISRSGSTNYADSVKGRFTISRDNAKNTVYLQMNSLKPEDTAVYYCAKETNRVGRYHCGQGTQVTVSS | low polyreactivity
QVQLVESGGGLVQAGGSLRLSCAASGRTIAAYAMGWYRQAPGKERELVAAISRSGGSTYYADSVKGRFTISRDNAKNTVYLQMNSLKPEDTAVYYCAAQRQYGKFDYWGQGTQVTVSS | high polyreactivity
QVQLVESGGGLVQAGGSLRLSCAASGRTIASYAMGWYRQAPGKERELVAAITSGGSTYYADSVKGRFTISRDNAKNTVYLQMNSLKPEDTAVYYCARIHAIWRGYDYWGQGTQVTVSS | low polyreactivity
QVQLVESGGGLVQAGGSLRLSCAASGRTIASYTMGWYRPAPGKERELVAAISKSGGSTYYADSVKGRFTISRDNAKNTVYLQMNSLKPEDTAVYYCAKRRSGNVRKYDYWGQGTQVTVSS | high polyreactivity
QVQLVESGGGLVQAGGSLRLSCAASGRTIASYTMGWYRQAPGKERELVAAISKSGGSTYYADSVKGRFTISRDNAKNTVYLQMNSLKPEDTAVYYCAAGVPFWFWFEMDYWGQGTQVTVSS | high polyreactivity
QVQLVESGGGLVQAGGSLRLSCAASGRTIFYYAMGWYRQAPGKERELVATITKRGGSTYYADSVKGRFTISRDNAKNTVYLQMNSLKPEDTALYYCAARFVGWRGGRAYYYWGQGTQVTVAS | high polyreactivity
QVQLVESGGGLVQAGGSLRLSCAASGRTIGPYAMGWYRQAPRKERELVAAISWSVGSTYYADSVKGRFTISRDNAKNTVYLQMNSLKPVDTAVYFCGAVYYSHVYYWGQGTQVTVSS | high polyreactivity
QVQLVESGGGLVQAGGSLRLSCAASGRTIGSNVMGWYRQAPGKERELVAAITYSGVSTYADSVKGRFTISRDNAKNTVYLQINSLKPEDTAVYYCNAYPTTYYQQYDYWGQGTQVTVSS | low polyreactivity
QVQLVESGGGLVQAGGSLRLSCAASGRTIIVYAMGWYRQAPGKERELVASITGIGDRTYYADSVKGRFTISRDNAKNTVYLQMNSLKPEDTAVYYCAKYGRTRFYYWGQGTQVTVSS | high polyreactivity
QVQLVESGGGLVQAGGSLRLSCAASGRTILHYAMGWYSQAPGKERELVASISSGVSTHYADSVKGRFTISRDNAKNTVYLQMNSLIPEDTAVYDCAARPYRIGRYGYDYDYWGQGTQVTVSS | high polyreactivity
QVQLVESGGGLVQAGGSLRLSCAASGRTIQWYAMGWYRQAPGKERELVAGISFSGGSTYYADSVKGRFTISRDNAKNTVYLQMNSLKPEDTAVYYCNAQGYTTYRGDYWGQGTQVTVSS | high polyreactivity
QVQLVESGGGLVQAGGSLRLSCAASGRTIRGNAMGWYRQAPGKERELVAAIRWNGGSTYYADSVKGRFTISRDNAKNTVYLQMNSLKPEDSAVSYCAVSYWYSRYDYWGQGTQVTVSS | high polyreactivity
QVQLVESGGGLVQAGGSLRLSCAASGRTIRRYAMGWYRQAPGKERELVAAITISGGSTYYADSVKGRFTISRDNAKNTVYLQMNSLKPEDTAVYYCAAQPWRALGYYYWGQGTQVTVSS | high polyreactivity
QVQLVESGGGLVQAGGSLRLSCAASGRTIRVNAMGWYRQAPRKERELVAAISRSTGDTYYADSVKGRFTNSRDNAKNTVYLQMHSLKPEDTAVYYCAADVPGGEGDYAYEYWGQGTQVNVSS | low polyreactivity
QVQLVESGGGLVQAGGSLRLSCAASGRTIRWNAMGWYRQAPGKERELVAAITSRGGSTYYADSVKGRFTISRDNAKNTVYLQMISLKPEDTAVSYCAKQPKPPPVTGYDYSGQGTQVTVSS | high polyreactivity
QVQLVESGGGLVQAGGSLRLSCAASGRTIRYNAMGWYRHAPGKERELVAAITGSGGSTYYADSVKGRFTISRDNAKNTVYLQMNSLKPEDTAAYSCNAVGIWFPIRLIVPYDYWGQGTQVTVSS | low polyreactivity
QVQLVESGGGLVQAGGSLRLSCAASGRTIRYYSMGWYRQAPGKESELVAAINYSGGRTYYADSVKGRFTISRDNSMNTVYLQLNSLKPEDTAVYYCNAVLGPYFPKFDYWGQGTQVTVSS | high polyreactivity
QVQLVESGGGLVQAGGSLRLSCAASGRTIRYYVMGWYRQAPGKERELVAAISSGGRTNYADSVKGRFTISRDNAKNTVYLQMNSLKPEDTAVYYCAADLWYYWTATRAFDYWGQGTQVTVSS | high polyreactivity
QVQLVESGGGLVQAGGSLRLSCAASGRTISWYAMGRYRQAPGKERELVAAITYSGGSTYYAVSVKGRFTISRDNAKNTVYLQMNSLKPEDTAVYYCAADGRVREYDYWGQGTQVTVSS | high polyreactivity
QVQLVESGGGLVQAGGSLRLSCAASGRTITWYAMGWYRQAPGTERELVAAITRTGRTTYADSVKGRFTISRDNAKNTVYLQMNSLKPEDTAVYYCAARRWGEYDYWGQGTQVTVSS | high polyreactivity

Sequence | polyreactivity (PSR sort gate)
QVQLVESGGGLVQAGGSLRLSCAASGRTIVFNAMGWYRQAPGKERELVAAITKNGGSTYYADSVKGRFTISRDNAKNTVYLQMNSLKPEDTAVYYCAVRRGYPFFYWGQGTQVTVSS | low polyreactivity
QVQLVESGGGLVQAGGSLRLSCAASGRTIYFNVMGWYRQAPGKERELVAAISGGGSTNYADSVKGRYTISRDNAKNTVYLQMNSLKPEDTAVYYCATGYYSGLIDDYWGQGTQVTVSS | low polyreactivity
QVQLVESGGGLVQAGGSLRLSCAASGRTIYFYTMGWYRQAPGKERELVATAITSGGCTNYAVSVKGRFTISRDNAKNTVHLLMNSRKPEDTAVYYCAAVPTEFGNRLEYDYWGQGTQVTVSS | low polyreactivity
QVQLVESGGGLVQAGGSLRLSCAASGRTIYQYAMGWYRQAPGKERELVAAISRGGSTNYADSLKGRFTISRDNAKNTVFLQMHSLKPEDTAVYYCASWYKFLSLKRLYERDYWGQGTQVTVSS | high polyreactivity
QVQLVESGGGLVQAGGSLRLSCAASGRTKQRKAMGWYRQAPGKERELVAAISSSGGSTYYADSVKGRFTISRDNAKNTVYLQMNSLKPEDTAVYYCAADGQFDDYYSLPFYYDYWGQGTHVTVSS | high polyreactivity
QVQLVESGGGLVQAGGSLRLSCAASGRTLARNAMGWYRQAPGKERELVASINGRTTRTYYADSVKGRFTISRDNAKNTVYLQMNSLKPEDTAVYYCAADPPGYVYGKRYYWGQGTQVTVSS | high polyreactivity
QVQLVESGGGLVQAGGSLRLSCAASGRTLASNAMGWYRQAPGKERELVAAINRGGSTYYADSVKGRFTISRDNAKNTVYLQMNSLKPEDTAVYYCRFYSYWSWLGREYDYWGQGTQVTVSS | low polyreactivity
QVQLVESGGGLVQAGGSLRLSCAASGRTLDWNAMGWYRPAPGKERELVAAISWSGDSTYYADSVKGRFTISRDNAKNTVYLQMNSLKPEDTAVYYCAAAGVYYGVRGTTYAFDYWGQGTQVTVSS | low polyreactivity
QVQLVESGGGLVQAGGSLRLSCAASGRTLEDYVMGWYRQAPGKERELVAAIYWSGVSTYYADSVKGRFTISRDNAKNTVYLQMNSMKPEDTAVYYCAKDSTADELTGFDYWGQGTQVTVSS | low polyreactivity
QVQLVESGGGLVQAGGSLRLSCAASGRTLEIYTMGLNRQAPGKERELVAAISGGSTYYADSVKGRFTISRDNSKNTVYLQMNSLKPEDTAVYYCAARPYVFRYHRWTVDWRYDYWGQGTQVTVSS | low polyreactivity
QVQLVESGGGLVQAGGSLRLSCAASGRTLEQYAMGWYRQAPGKERELVAAINKSGARTYYADSVKGRFTISRDNAKNSVYLQMNSQKPEDTAVYYCNTVGPSYLFDYWGQGTQVTVSS | high polyreactivity
QVQLVESGGGLVQAGGSLRLSCAASGRTLFRYAMGWYRQAPGKERELVAAISRSGGTTYYADSVKGRFTISRDNAKNTVYLQMNSLKPEDTAVYYCAARGRYKDGYRMDYWGQGTQVTVSS | high polyreactivity
QVQLVESGGGLVQAGGSLRLSCAASGRTLFVYAMGWYRQAPGKEREFVAAIRWRGGSTYYADSVKGRFTISRDNAKNTVYLQMNSLKPEDTAVYYCAADTYWVKTDYLYGYWGQGTQVTVSS | high polyreactivity
QVQLVESGGGLVQAGGSLRLSCAASGRTLGIYAMGWYIQAPGKERELVADISRDSSTYYADSVKGRFTISRDNAKNTVYLQMNSLKPEDTAVYYCNADQTPRDVTDWWYDYDYWGQGTQVTVSS | low polyreactivity
QVQLVESGGGLVQAGGSLRLSCAASGRTLGTNAMGWYRQARGKERELVAAISRTGTSTYYADSVKGRFTISRDNAKNTVYLQMNSLKPEDTAVYYCAVRVPVSIPPGNYYYWGQGTQVTVSS | high polyreactivity
QVQLVESGGGLVQAGGSLRLSCAASGRTLGTYAMGWYRQAPGKERELVAAITSGGSTYYADSVKGRFTISRDNAKNTVYLQMNSLKPEDTAVYYRATYSYYYWGQGTQVTVSS | low polyreactivity
QVQLVESGGGLVQAGGSLRLSCAASGRTLIAYAMGWYRQAPGKEREFVAAIRADDGRTYYADSVKGRFTISRDNAKNTVYLQMNSLKPEDTAVYYCATKADKRYGFGYWGQGTQVTVSS | high polyreactivity
QVQLVESGGGLVQAGGSLRLSCAASGRTLIAYAMGWYRQAPGKEREFVAAIRADDGRTYYADSVKGRFTISRDNAMNTVYLQMNSLKPDDTAVYYCATKADKRYRFGYWGQGTQVTVSS | high polyreactivity
QVQLVESGGGLVQAGGSLRLSCAASGRTLKYNAMGWYRQAPGKERELVAAISYSGSSTYYADSVKGRFTISRDNAKNTVYLQMNSLKPEDTAVYYCNTARPTAAYDYWGQGTQVTVSS | low polyreactivity
QVQLVESGGGLVQAGGSLRLSCAASGRTLLKYAMGWYRQATGKEREFVAAITRSGSSTYYADSVKGRFTISRDNAKNTVYLQMNSLKPEDTAVYYCAARLYRVTLDYWGQGTQVTVSS | low polyreactivity
QVQLVESGGGLVQAGGSLRLSCAASGRTLLLNTMGWYRQAPGKERELFAAISWRDGSTYYADSVKRRFTISRDNAKITVYLQMNSLIPEDTAVYYCNARLSGRSPYDLRFDYWGQGTQVTVSS | low polyreactivity
